Publication PMC4040697 (Cell Death & Disease, 2014)
Values belong to the binder of their own block, whether it stands above or below them.

How the values were obtained:
[1] = target: T1, glutathione transferase P1-1 (GSTP1-1), native (UniProt P09211 1-210); test: ELISA
[2] = target: T1, glutathione transferase P1-1 (GSTP1-1), …; test: ELISA; remark: listed apart in the source
[3] = target: T1, glutathione transferase P1-1 (GSTP1-1), …; test: ELISA; remark: listed apart in the source
[4] = target: T1, glutathione transferase P1-1 (GSTP1-1), …; test: ELISA; remark: listed apart in the source
[5] = target: T1, glutathione transferase P1-1 (GSTP1-1), …; test: ELISA; remark: listed apart in the source
[6] = target: T1, glutathione transferase P1-1 (GSTP1-1), …; test: ELISA; remark: listed apart in the source
[7] = target: T1, glutathione transferase P1-1 (GSTP1-1), …; test: ELISA; remark: listed apart in the source
[8] = target: 'Oxidized' GSTP1-1 (oxidatively inactivated) (UniProt P09211 1-210, one intra-chain disulfide bond between cysteine 47 and 101); test: ELISA
Sequence of 'Oxidized' GSTP1-1 (oxidatively inactivated) (P09211 whole entry): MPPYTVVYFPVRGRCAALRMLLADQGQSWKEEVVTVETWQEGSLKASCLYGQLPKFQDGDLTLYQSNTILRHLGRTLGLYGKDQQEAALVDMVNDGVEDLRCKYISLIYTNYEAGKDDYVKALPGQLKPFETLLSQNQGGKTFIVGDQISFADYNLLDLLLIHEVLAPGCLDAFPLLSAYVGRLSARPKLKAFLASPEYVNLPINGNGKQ

[9] = target: T1, glutathione transferase P1-1 (GSTP1-1), …; test: other fluorescence titration
[10] = target: T1, glutathione transferase P1-1 (GSTP1-1), …; test: other fluorescence titration; remark: listed apart in the source

T1 sequence (P09211 whole entry): as above

Kd [1]: 0.93 µM
Kd [2]: 0.49 µM
Kd [3]: ≥ 5 µM
Kd [4]: 2.7 µM
Kd [5]: 1.2 µM
Kd [6]: 2.6 µM
Kd [7]: 0.29 µM
Kd [8]: 1.7 µM
B1: His-tagged C-terminal domain of TRAF2 (residues 310–501) (domain or fragment, human, UniProt Q12933 310-501, looked up)
chain: DQDKIEALSSKVQQLERSIGLKDLAMADLEQKVLEMEASTYDGVFIWKISDFARKRQEAVAGRIPAIFSPAFYTSRYGYKMCLRIYLNGDGTGRGTHLSLFFVVMKGPNDALLRWPFNQKVTLMLLDQNNREHVIDAFRPDVTSSSFQRPVNDMNIASGCPLFCPVSKMEAKNSYVRDDAIFIKAIVDLTGL

Kd [9]: 4.6 µM
Kd [10]: 0.3 µM
B2: Dansylated TRAF2 (C-terminal domain, residues 310–501) (domain or fragment, human, UniProt Q12933 310-501, looked up)
chain: B1 chain
modifications: dansyl, mole ratio of dansyl/TRAF2 2 : 1; labelled residues not stated
